The target in series [1] is T1, His6-T7 RNA polymerase (bacteriophage T7, UniProt P00573 1-883). As to the kind of experiment: smFRET; no NTPs; ~0.4 FRET; Transcription-scanning buffer: 40 mM Tris-HCl pH 7.9, 5 mM Mg2+, 60 mM Na+, 0.2 mg/ml BSA, 2 mM Trolox, PCA/PCD; 0.5-5 nM RNAP, 20 nM AID; temperature and ssDNA.
Series [2] deals with T1, His6-T7 RNA polymerase. The series is described as follows: smFRET; no NTPs; Transcription-scanning buffer: 40 mM Tris-HCl pH 7.9, 5 mM Mg2+, 60 mM Na+, 0.2 mg/ml BSA, 2 mM Trolox, PCA/PCD; 0.5-5 nM RNAP, 20 nM AID; temperature and ssDNA.
Series [3] has as its target T1, His6-T7 RNA polymerase. As to the kind of experiment: smFRET; no NTPs; ~0.95 FRET; Transcription-scanning buffer: 40 mM Tris-HCl pH 7.9, 5 mM Mg2+, 60 mM Na+, 0.2 mg/ml BSA, 2 mM Trolox, PCA/PCD; 0.5-5 nM RNAP, 20 nM AID; temperature and ssDNA.
In series [4] the target is T1, His6-T7 RNA polymerase. As to the kind of experiment: smFRET; no NTPs; ~0.85 FRET; Transcription-scanning buffer: 40 mM Tris-HCl pH 7.9, 5 mM Mg2+, 60 mM Na+, 0.2 mg/ml BSA, 2 mM Trolox, PCA/PCD; 0.5-5 nM RNAP, 20 nM AID; temperature and ssDNA.
Series [5] has as its target T1, His6-T7 RNA polymerase. As to the kind of experiment: smFRET; no NTPs; ~0.2 FRET; Transcription-scanning buffer: 40 mM Tris-HCl pH 7.9, 5 mM Mg2+, 60 mM Na+, 0.2 mg/ml BSA, 2 mM Trolox, PCA/PCD; 0.5-5 nM RNAP, 20 nM AID; temperature and ssDNA.

T1 sequence (P00573 whole entry): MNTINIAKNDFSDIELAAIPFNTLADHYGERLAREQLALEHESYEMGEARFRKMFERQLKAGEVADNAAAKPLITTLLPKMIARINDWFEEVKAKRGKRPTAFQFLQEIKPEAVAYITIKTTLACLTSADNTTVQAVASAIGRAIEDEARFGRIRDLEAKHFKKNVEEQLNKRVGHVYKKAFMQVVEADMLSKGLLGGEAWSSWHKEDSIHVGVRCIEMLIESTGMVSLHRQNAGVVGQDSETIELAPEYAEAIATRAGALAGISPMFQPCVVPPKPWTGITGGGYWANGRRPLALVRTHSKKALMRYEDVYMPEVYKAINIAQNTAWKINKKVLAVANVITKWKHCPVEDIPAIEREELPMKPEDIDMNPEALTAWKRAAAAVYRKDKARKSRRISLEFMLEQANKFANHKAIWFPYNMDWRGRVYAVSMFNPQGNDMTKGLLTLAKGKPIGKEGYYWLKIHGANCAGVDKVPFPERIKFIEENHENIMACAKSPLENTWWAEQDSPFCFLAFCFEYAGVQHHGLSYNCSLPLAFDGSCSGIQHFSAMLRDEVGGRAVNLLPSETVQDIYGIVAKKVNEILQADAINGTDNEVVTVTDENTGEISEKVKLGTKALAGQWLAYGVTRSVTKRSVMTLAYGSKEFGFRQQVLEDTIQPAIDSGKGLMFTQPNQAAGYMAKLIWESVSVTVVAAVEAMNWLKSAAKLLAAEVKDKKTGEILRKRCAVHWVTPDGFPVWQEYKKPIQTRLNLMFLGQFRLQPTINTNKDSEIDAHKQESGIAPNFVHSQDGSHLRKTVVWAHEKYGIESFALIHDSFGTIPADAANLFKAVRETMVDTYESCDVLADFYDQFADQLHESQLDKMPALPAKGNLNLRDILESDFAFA

B1: T7 promoter dsDNA shifted 10 bp downstream (29 bp from Cy3 end) (dsDNA)
DNA 1: TTTGTGAGGAGGTCAGAGATGCATAATACGACTCACTATAGGGAGAAAAGGGGAAAGCAAAGAGGAAAG
DNA 2: CTTTCCTCTTTGCTTTCCCCTTTTCTCCCTATAGTGAGTCGTATTATGCATCTCTGACCTCCTCAC
B1: the binding result in series [1] is listed as “binds”.

B2: No-promoter dsDNA 66-mer (dsDNA)
DNA 1: CAGAGATGCAGCCGTCCGTATCCGTATTGTAGAAAAGGGGAAAGCAAAGAGGAAAGGTGAGGAGGT
DNA 2: ACCTCCTCACCTTTCCTCTTTGCTTTCCCCTTTTCTACAATACGGATACGGACGGCTGCATCTCTG
For B2, in series [2], the binding result is “no binding”.

B3: T7 promoter dsDNA shifted 30 bp downstream (9 bp from Cy3 end) (dsDNA)
DNA 1: TTTGGGGAAAGCAAAGAGGAAAGGTGAGGAGGTCAGAGATGCATAATACGACTCACTATAGGGAGAAAA
DNA 2: TTTTCTCCCTATAGTGAGTCGTATTATGCATCTCTGACCTCCTCACCTTTCCTCTTTGCTTTCCCC
Take B3: in series [3], the binding result is “binds”.

B4: T7 promoter dsDNA shifted 20 bp downstream (19 bp from Cy3 end) (dsDNA)
DNA 1: TTTAAGAGGAAAGGTGAGGAGGTCAGAGATGCATAATACGACTCACTATAGGGAGAAAAGGGGAAAGCA
DNA 2: TGCTTTCCCCTTTTCTCCCTATAGTGAGTCGTATTATGCATCTCTGACCTCCTCACCTTTCCTCTT
In the case of B4, in series [4], the binding result is “binds”.

B5: 69/66-mer T7 promoter dsDNA (promoter 39 bp from Cy3 end) (dsDNA)
DNA 1: TTTCAGAGATGCATAATACGACTCACTATAGGGAGAAAAGGGGAAAGCAAAGAGGAAAGGTGAGGAGGT
DNA 2: ACCTCCTCACCTTTCCTCTTTGCTTTCCCCTTTTCTCCCTATAGTGAGTCGTATTATGCATCTCTG
B5: the binding result in series [5] is recorded as “binds”.
